Test results published in paper PMC9482650, “Quantitative fragmentomics allow affinity mapping of interactomes” (Nature Communications, 2022).

T1: DFNB31_1, Q9P202
T1 sequence (Q9P202 135-233, limits assumed, looked up): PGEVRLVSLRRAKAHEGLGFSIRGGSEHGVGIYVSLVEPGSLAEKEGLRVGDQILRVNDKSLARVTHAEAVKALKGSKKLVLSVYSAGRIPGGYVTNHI

T2: DLG3_1, Q92796
T2 sequence (Q92796 125-227, limits assumed, looked up): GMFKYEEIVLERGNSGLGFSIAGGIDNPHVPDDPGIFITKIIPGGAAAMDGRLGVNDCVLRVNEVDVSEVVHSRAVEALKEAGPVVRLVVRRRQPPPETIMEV

T3: DLG3_2, Q92796
T3 sequence (Q92796 221-321, limits assumed, looked up): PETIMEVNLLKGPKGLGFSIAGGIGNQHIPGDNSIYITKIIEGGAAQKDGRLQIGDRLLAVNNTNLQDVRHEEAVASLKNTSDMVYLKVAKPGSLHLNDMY

T4: LIN7A, O14910
T4 sequence (O14910 103-200, limits assumed, looked up): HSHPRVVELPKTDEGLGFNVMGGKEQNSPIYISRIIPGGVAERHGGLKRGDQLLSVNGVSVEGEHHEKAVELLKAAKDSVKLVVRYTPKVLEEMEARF

T5: MPDZ_5, O75970
T5 sequence (O75970 695-796, limits assumed, looked up): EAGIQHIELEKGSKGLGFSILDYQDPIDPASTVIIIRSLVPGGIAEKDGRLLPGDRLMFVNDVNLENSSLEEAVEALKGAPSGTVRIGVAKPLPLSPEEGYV

T6: NHERF3_3, Q5T2W1
T6 sequence (Q5T2W1 238-333, limits assumed, looked up): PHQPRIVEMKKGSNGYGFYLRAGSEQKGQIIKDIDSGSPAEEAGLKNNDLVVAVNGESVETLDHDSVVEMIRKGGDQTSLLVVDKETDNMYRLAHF

T7: PTPN13_1, Q12923
T7 sequence (Q12923 1088-1188, limits assumed, looked up): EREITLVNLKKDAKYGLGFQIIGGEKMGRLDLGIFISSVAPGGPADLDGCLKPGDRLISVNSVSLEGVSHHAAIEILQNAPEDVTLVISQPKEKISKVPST

T8: RADIL, Q96JH8
T8 sequence (Q96JH8 971-1071, limits assumed, looked up): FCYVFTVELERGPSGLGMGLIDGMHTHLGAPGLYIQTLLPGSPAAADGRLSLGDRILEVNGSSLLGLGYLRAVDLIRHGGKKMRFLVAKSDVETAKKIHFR

T9: RHPN1, Q8TCX5
T9 sequence (Q8TCX5 508-602, limits assumed, looked up): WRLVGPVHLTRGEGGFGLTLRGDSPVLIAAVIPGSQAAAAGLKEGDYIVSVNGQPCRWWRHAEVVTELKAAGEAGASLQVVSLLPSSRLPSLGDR

T10: SNTG1, Q9NSN8
T10 sequence (Q9NSN8 52-150, limits assumed, looked up): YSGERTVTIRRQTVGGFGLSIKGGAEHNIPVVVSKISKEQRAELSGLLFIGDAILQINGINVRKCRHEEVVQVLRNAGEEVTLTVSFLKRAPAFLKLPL

T11: SNTG2, Q9NY99
T11 sequence (Q9NY99 68-166, limits assumed, looked up): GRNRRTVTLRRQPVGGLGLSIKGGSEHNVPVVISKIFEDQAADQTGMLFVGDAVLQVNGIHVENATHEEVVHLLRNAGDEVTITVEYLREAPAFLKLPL


Key:
Assay in all cases: holdup assay
Design in all cases: key: below the threshold = too weak to quantify, mostly under pKd 3.1 to 4
Conditions in all cases: plain residues with an end cap or a label only (N-terminal biotin on a linker: ado-ado)
AHNAK1, Q09666 = target: AHNAK1, Q09666
DFNB31_1, Q9P202 = target: T1, DFNB31_1, Q9P202
DLG1_3, Q12959 = target: DLG1_3, Q12959
DLG3_1, Q92796 = target: T2, DLG3_1, Q92796
DLG3_2, Q92796 = target: T3, DLG3_2, Q92796
FRMPD2_2, Q68DX3 = target: FRMPD2_2, Q68DX3
FRMPD2_3, Q68DX3 = target: FRMPD2_3, Q68DX3
GORASP2, Q9H8Y8 = target: GORASP2, Q9H8Y8
Inadl_10, Q8NI35 = target: Inadl_10, Q8NI35
Inadl_3, Q8NI35 = target: Inadl_3, Q8NI35
Inadl_9, Q8NI35 = target: Inadl_9, Q8NI35
LIMK2, P53671 = target: LIMK2, P53671
LIN7A, O14910 = target: T4, LIN7A, O14910
LNX1_2, Q8TBB1 = target: LNX1_2, Q8TBB1
MAGI1_2, Q96QZ7 = target: MAGI1_2, Q96QZ7
MAGI2_4, Q86UL8 = target: MAGI2_4, Q86UL8
MPDZ_5, O75970 = target: T5, MPDZ_5, O75970
NHERF3_3, Q5T2W1 = target: T6, NHERF3_3, Q5T2W1
NHERF4_1, Q86UT5-2 = target: NHERF4_1, Q86UT5-2
PTPN13_1, Q12923 = target: T7, PTPN13_1, Q12923
PTPN3, P26045 = target: PTPN3, P26045
RADIL, Q96JH8 = target: T8, RADIL, Q96JH8
RHPN1, Q8TCX5 = target: T9, RHPN1, Q8TCX5
SCRIB_2, Q14160 = target: SCRIB_2, Q14160
SNTG1, Q9NSN8 = target: T10, SNTG1, Q9NSN8
SNTG2, Q9NY99 = target: T11, SNTG2, Q9NY99
TJP1_3, Q07157 = target: TJP1_3, Q07157
Chain of TJP1_3, Q07157 (Q07157 416-512): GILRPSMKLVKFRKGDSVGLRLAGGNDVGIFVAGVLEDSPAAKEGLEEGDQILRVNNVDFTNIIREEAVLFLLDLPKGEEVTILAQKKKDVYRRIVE

Chain of MAGI1_2, Q96QZ7 (Q96QZ7 456-580): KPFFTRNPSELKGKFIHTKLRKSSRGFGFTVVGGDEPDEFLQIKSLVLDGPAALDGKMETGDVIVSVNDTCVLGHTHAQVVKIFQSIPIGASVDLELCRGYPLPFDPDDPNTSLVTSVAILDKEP
Chain of LIMK2, P53671 (P53671 143-248): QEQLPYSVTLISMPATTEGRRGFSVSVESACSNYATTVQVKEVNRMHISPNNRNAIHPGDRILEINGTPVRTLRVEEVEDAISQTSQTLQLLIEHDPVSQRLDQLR
Chain of Inadl_9, Q8NI35 (Q8NI35 1530-1615): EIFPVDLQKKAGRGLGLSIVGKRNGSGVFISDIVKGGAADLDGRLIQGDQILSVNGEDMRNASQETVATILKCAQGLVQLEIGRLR
Chain of FRMPD2_3, Q68DX3 (Q68DX3 1073-1166): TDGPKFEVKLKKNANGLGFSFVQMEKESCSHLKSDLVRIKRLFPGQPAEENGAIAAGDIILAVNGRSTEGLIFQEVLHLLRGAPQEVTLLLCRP
Chain of DLG1_3, Q12959 (Q12959 457-571): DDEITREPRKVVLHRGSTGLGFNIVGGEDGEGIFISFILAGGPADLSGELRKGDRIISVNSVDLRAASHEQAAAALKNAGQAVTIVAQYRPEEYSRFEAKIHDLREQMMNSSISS
Chain of FRMPD2_2, Q68DX3 (Q68DX3 944-1038): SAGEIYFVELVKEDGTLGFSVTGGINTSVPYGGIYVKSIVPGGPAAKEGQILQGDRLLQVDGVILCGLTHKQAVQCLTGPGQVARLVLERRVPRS
Chain of NHERF4_1, Q86UT5-2 (Q86UT5 other isoform, or with tags, fused parts or gaps): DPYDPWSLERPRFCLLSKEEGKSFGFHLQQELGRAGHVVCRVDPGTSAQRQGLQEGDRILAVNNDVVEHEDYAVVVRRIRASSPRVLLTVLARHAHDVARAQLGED
Chain of LNX1_2, Q8TBB1 (Q8TBB1 371-470): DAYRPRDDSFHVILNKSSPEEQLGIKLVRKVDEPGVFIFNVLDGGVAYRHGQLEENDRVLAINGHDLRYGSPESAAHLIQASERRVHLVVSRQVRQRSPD
Chain of SCRIB_2, Q14160 (Q14160 857-960): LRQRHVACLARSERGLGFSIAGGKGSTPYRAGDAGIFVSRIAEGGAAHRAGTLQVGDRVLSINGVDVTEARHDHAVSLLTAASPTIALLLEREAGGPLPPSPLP
Chain of PTPN3, P26045 (P26045 505-587): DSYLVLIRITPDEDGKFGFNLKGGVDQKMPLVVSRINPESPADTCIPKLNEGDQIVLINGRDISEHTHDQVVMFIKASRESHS
Chain of Inadl_10, Q8NI35 (Q8NI35 1673-1763): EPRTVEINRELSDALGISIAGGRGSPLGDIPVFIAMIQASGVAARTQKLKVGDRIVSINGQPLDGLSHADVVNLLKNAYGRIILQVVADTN
Chain of MAGI2_4, Q86UL8 (Q86UL8 772-865): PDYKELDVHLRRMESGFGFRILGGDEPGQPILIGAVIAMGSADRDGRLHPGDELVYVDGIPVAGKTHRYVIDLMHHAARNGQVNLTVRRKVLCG
Chain of AHNAK1, Q09666 (Q09666 4-100): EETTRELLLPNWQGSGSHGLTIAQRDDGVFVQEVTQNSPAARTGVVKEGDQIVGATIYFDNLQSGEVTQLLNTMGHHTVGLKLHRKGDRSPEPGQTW
Chain of Inadl_3, Q8NI35 (Q8NI35 359-469): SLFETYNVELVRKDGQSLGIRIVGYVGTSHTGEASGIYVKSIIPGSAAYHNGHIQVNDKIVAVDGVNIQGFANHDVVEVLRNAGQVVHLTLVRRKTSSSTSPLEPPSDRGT

Row | Binder | pKd (AHNAK1, Q09666) | pKd (DFNB31_1, Q9P202) | pKd (DLG1_3, Q12959) | pKd (DLG3_1, Q92796) | pKd (DLG3_2, Q92796) | pKd (FRMPD2_2, Q68DX3) | pKd (FRMPD2_3, Q68DX3) | pKd (GORASP2, Q9H8Y8) | pKd (Inadl_10, Q8NI35) | pKd (Inadl_3, Q8NI35) | pKd (Inadl_9, Q8NI35) | pKd (LIMK2, P53671) | pKd (LIN7A, O14910) | pKd (LNX1_2, Q8TBB1) | pKd (MAGI1_2, Q96QZ7) | pKd (MAGI2_4, Q86UL8) | pKd (MPDZ_5, O75970) | pKd (NHERF3_3, Q5T2W1) | pKd (NHERF4_1, Q86UT5-2) | pKd (PTPN13_1, Q12923) | other results
1 | LSEFKAMDSF [CTNNA2, P26232] | below the threshold | below the threshold | below the threshold | below the threshold | 4.16 | below the threshold | below the threshold | below the threshold | below the threshold | below the threshold | below the threshold | below the threshold | below the threshold | below the threshold | below the threshold | below the threshold | below the threshold | below the threshold | 4.37 | below the threshold | pKd (PTPN3, P26045): below the threshold; pKd (RADIL, Q96JH8): below the threshold; pKd (RHPN1, Q8TCX5): below the threshold; pKd (SCRIB_2, Q14160): below the threshold; pKd (SNTG1, Q9NSN8): below the threshold; pKd (SNTG2, Q9NY99): below the threshold; pKd (TJP1_3, Q07157): below the threshold
2 | EEDTAEKDEL [HSPA5, P11021] | below the threshold | below the threshold | 3.77 | below the threshold | below the threshold | below the threshold | below the threshold | below the threshold | below the threshold | below the threshold | below the threshold | below the threshold | 3.49 | below the threshold | below the threshold | 3.55 | below the threshold | below the threshold | 3.8 | below the threshold | pKd (PTPN3, P26045): below the threshold; pKd (RADIL, Q96JH8): below the threshold; pKd (RHPN1, Q8TCX5): below the threshold; pKd (SCRIB_2, Q14160): below the threshold; pKd (SNTG1, Q9NSN8): below the threshold; pKd (SNTG2, Q9NY99): below the threshold; pKd (TJP1_3, Q07157): below the threshold
3 | PELESKESVL [SLC1A4, P43007] | below the threshold | 3.6 | below the threshold | below the threshold | 3.79 | below the threshold | below the threshold | below the threshold | below the threshold | below the threshold | below the threshold | below the threshold | below the threshold | below the threshold | below the threshold | below the threshold | below the threshold | below the threshold | 3.9 | below the threshold | pKd (PTPN3, P26045): 5.05; pKd (RADIL, Q96JH8): below the threshold; pKd (RHPN1, Q8TCX5): 4.49; pKd (SCRIB_2, Q14160): below the threshold; pKd (SNTG1, Q9NSN8): 3.68; pKd (SNTG2, Q9NY99): 4.09; pKd (TJP1_3, Q07157): below the threshold
4 | RQSILFSTEV [BCR, P11274] | below the threshold | 4.27 | 4.06 | 4.17 | 4.79 | 4.12 | below the threshold | 3.82 | 4.32 | 4.66 | 4.09 | below the threshold | 3.66 | 3.74 | 3.91 | 4.88 | below the threshold | below the threshold | 3.68 | below the threshold | pKd (PTPN3, P26045): 4.59; pKd (RADIL, Q96JH8): 4.48; pKd (RHPN1, Q8TCX5): 3.94; pKd (SCRIB_2, Q14160): 4.54; pKd (SNTG1, Q9NSN8): 4.67; pKd (SNTG2, Q9NY99): 4.1; pKd (TJP1_3, Q07157): below the threshold
5 | PLDSQQHTEV [FAT1, Q14517] | below the threshold | 3.85 | below the threshold | 3.8 | 4.77 | 3.73 | below the threshold | below the threshold | below the threshold | below the threshold | 3.69 | below the threshold | below the threshold | below the threshold | below the threshold | below the threshold | below the threshold | below the threshold | below the threshold | below the threshold | pKd (PTPN3, P26045): 4.5; pKd (RADIL, Q96JH8): 3.89; pKd (RHPN1, Q8TCX5): 4.07; pKd (SCRIB_2, Q14160): 4.21; pKd (SNTG1, Q9NSN8): 4.04; pKd (SNTG2, Q9NY99): 3.67; pKd (TJP1_3, Q07157): below the threshold
